These results are taken from patent US20220267427A1 (SYSMEX, published 2022).

Where no end group is shown, it is not given here.

Experiment [1] deals with T1, rfCK18 (239-396) (human, UniProt P05783 239-396).
T1 construct: Bought (Cloud-Clone-Corp.); captured through an anti-GST or penta HIS antibody, the tag is not described
T1 sequence: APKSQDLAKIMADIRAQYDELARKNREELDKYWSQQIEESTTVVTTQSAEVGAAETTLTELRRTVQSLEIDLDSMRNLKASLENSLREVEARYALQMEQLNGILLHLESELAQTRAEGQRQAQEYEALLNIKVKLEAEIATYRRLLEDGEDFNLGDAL
The experiment in a line: solid phase ELISA; antigen (0.3 ug/mL) captured by anti-GST or penta HIS antibody on plate, antibody 5 to 10 ng/mL. As to the method:
(§1) (1) An ANTI GST antibody or a penta HIS antibody was added to an ELISA plat at 2.5 μg/mL and 50 μL/well, and the plate was allowed to stand at 4° C. overnight to immobilize the antibody. Thereafter, the plate was washed three times with PBST, and Buffer I′ (10 mM NaH₂PO₄.2H₂O, 149.7 mM NaCl, 2.5 mM EDTA 2Na, 0.10% BSA, pH 7.0) was added thereto at 200 μL/well to prepare a plate stored at 4° C. overnight. […] (3) The plate was washed three times with PBST, and 50 μL each of each antigen diluent was added thereto, followed by shaking for 45 minutes. […] (6) The plate was washed three times with PBST, and 15000-fold diluted Peroxidase-conjugated Affinipure F(ab)′2 Fragment Goat Anti-Mouse IgG (H+L) (Jackson) was added thereto at 50 μL/well, followed by shaking for 45 minutes. (7) The plate was washed three times with PBST, TMB Mix (1-step Ultra TMB-ELISA (Thermo Scientific):3% H₂O₂: Phosphate-Citrate buffer (Sigma)=15:0.15:14.85) was added thereto at 100 μL/well, and the mixture was reacted at room temperature for 10 minutes. Thereafter, 1 M H₂SO₄ was added thereto at 100 μL/well to stop the reaction. (8) Absorbance of the reaction solution at 450 nm was measured with a plate reader.

In experiment [2] the target is T2, fCK18 in apoptosis-induced HepG2 cell culture supernatant (human, UniProt P05783 239-397).
T2 construct: Natural CK18 fragment from the culture supernatant of apoptosis-induced HepG2 cells (band around 18 KDa); also called fCK18 in apoptosis-inducing cells
T2 sequence: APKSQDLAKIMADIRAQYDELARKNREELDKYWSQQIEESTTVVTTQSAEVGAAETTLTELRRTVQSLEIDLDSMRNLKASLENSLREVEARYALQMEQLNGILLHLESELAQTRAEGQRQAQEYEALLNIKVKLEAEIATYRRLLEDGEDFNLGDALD
The experiment in a line: HISCL sandwich immunoassay; K18-624 magnetic microbeads capture, K18-328Fab-ALP detector; fCK18 0.28 ng/mL.

Experiment [3] has as its target T2, fCK18 in apoptosis-induced HepG2 cell …. Briefly: HISCL sandwich immunoassay; K18-624 magnetic microbeads capture, K18-328Fab-ALP detector; fCK18 60.73 ng/mL.
In experiment [4] the target is T1, rfCK18 (239-396). Briefly: solid phase ELISA, antigen captured through anti-GST or penta HIS antibody. As to the method: as §1
On the technique in general: ELISA stands for enzyme-linked immunosorbent assay.

Experiment [5] concerns the target T2, fCK18 in apoptosis-induced HepG2 cell …. Briefly: plate ELISA with K18-624 magnetic microbeads, K18-328Fab-ALP detector; fCK18 0.09 ng/mL. The procedure: (§2) Measurement samples of 3-fold dilution series (3-fold to 6561-fold dilution) were prepared from the apoptosis-induced HepG2 cell culture supernatant with a diluent (TBS, pH 7.5, 2% BSA), and fCK18 was measured. […] Based on the prepared calibration curve, fCK18 in the measurement sample was measured.
(§3) This solution was added to an ELISA plate at 25 μL/well, then each measurement sample was added at 25 μL/well, and the plate was incubated (1500 rpm, RT, 20 min). […] (3) After washing the plate, the HISCL (registered trademark) R4 reagent was added thereto at 50 μL/well, and then the mixture was stirred (1500 rpm, RT, 1 min). Thereafter, the HISCL (registered trademark) R5 reagent was added at 100 μL/well, and then the mixture was stirred (1000 rpm, RT, 10 sec). (4) Luminescence intensity was measured with a plate reader.

The next experiment concerns the target T3, Peptide 2 (human).
T3 construct: Synthetic peptide; lacks the C-terminal aspartic acid of Peptide 1
T3 peptide: {BSA}-RRLLEDGEDFNLGDAL
Briefly: solid phase ELISA, BSA-conjugated peptide on plate. The procedure: (1) BSA was added to the N-terminus of Peptide 1 and Peptide 2. (2) Each peptide was added to an ELISA plate at 5 μg/mL and 100 μL/well, and the plate was allowed to stand at 4° C. overnight to immobilize the peptide. Thereafter, the plate was washed three times with PBST, and Buffer I′ (10 mM NaH₂PO₄.2H₂O, 149.7 mM NaCl, 2.5 mM EDTA 2Na, 0.10% BSA, pH 7.0) was added thereto at 200 μL/well to prepare a plate stored at 4° C. overnight. […] (5) The plate was washed three times with PBST, and 15000-fold diluted Peroxidase-conjugated Affinipure F(ab)′2 Fragment Goat Anti-Mouse IgG (H+L) (Jackson) was added thereto at 100 μL/well, followed by shaking at room temperature for 1 hour. (6) The plate was washed three times with PBST, TMB Mix (1-step Ultra TMB-ELISA (Thermo Scientific):3% H₂O₂: Phosphate-Citrate buffer (Sigma)=15:0.15:14.85) was added thereto at 100 μL/well, and the mixture was reacted at room temperature for 10 minutes. Thereafter, 1 M H₂SO₄ was added thereto at 100 μL/well to stop the reaction. (7) Absorbance of the reaction solution at 450 nm was measured with a plate reader.

The target in experiment [6] is T2, fCK18 in apoptosis-induced HepG2 cell …. Briefly: plate ELISA with K18-624 magnetic microbeads, K18-328Fab-ALP detector; fCK18 0.28 ng/mL. As to the method:
as §2, §3

Experiment [7] shares this target. The experiment in a line: HISCL sandwich immunoassay; K18-624 magnetic microbeads capture, K18-328Fab-ALP detector; fCK18 20.27 ng/mL.
Experiment [8] has the same target. The experiment in a line: plate ELISA with K18-624 magnetic microbeads, K18-328Fab-ALP detector; fCK18 182.28 ng/mL. The procedure: as §2, §3

B1: K18-328 antibody (antibody, V domains shown)
VH: QVHLQQSAAELARPGASVKMSCKASGYTFTNYTIHWIKQRPGQGLEWIGYINPSSGYTDYNQNFKDKTTLTADKSSTTVYMQLSSLTSEDSAVYYCARQIPFAYWGQGTLVTVSA
VL: not shown
notes: Mouse monoclonal antibody from a hybridoma (immunogen full length rCK18)
The molecule B1 showed an Abs450 in the experiment with rfCK18 (239-396) [1] of 0.525.

B2: K18-624 antibody (antibody, V domains shown)
VH: DVQLVESGGGLVQPGGSRKLSCAASGFTFSSFGMHWVRQAPEKGLEWVAYISSGSTTIYYADTVKGRFTISRDNPKNTLFLQMTSLRSEDTAMYYCARRGMITTGAWFAYWGQGTLVTVSA
VL: DILLTQSPAILSVSPGERVSFSCRASQRIGTSIHWYQQRTNGSPRLLIKYASESISGIPSRFSGSGSGTDFTLSINSVESEDIADYYCQQSYIWPFTFGSGTKLEIK
notes: Mouse monoclonal antibody from a hybridoma (Balb/C mouse immunised with Peptide 1-KLH)
With B2, the S/N ratio in experiment [2] is 3.8; in [3] it was 683; in [5], 2.7; in experiment [6] it was 5.9; in experiment [7], 226; in experiment [8], 5560. Also, the binding result in the experiment with rfCK18 (239-396) [4] and in the experiment with Peptide 2 was “no binding (tested: 5 to 10 ng/mL)” each time. In the experiment with rfCK18 (239-396) [1], this molecule had an Abs450 of 0.017.
